Assay results: US20090074756A1 (published 2009)

Tests used:
[1] = biological target: T1, human LLT1 (Lectin-like transcript 1), full length (human, UniProt Q9UHP7 1-191); assay: flow cytometry, LLT1 multimer on LLT1-transfected HEK293T cells
T1 construct: Expressed on transfected HEK293T, Hela, C1R and P815 cells; The background says LLT1 is a homodimer on the cell surface; also called LLT1-pIRES2-EGFP transfected HEK293T cells
T1 sequence: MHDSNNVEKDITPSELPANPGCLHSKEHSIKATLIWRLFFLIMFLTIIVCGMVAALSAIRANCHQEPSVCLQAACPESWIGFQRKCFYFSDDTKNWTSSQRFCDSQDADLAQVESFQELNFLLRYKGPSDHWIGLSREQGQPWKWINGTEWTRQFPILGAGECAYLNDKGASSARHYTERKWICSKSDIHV
Protocol: (§1) Flow cytometry using the LLT1-Fc-ProteinA-biotin-Streptavidin-APC multimer (LLT1-multimer) was performed to identify the receptor of LLT1.

human CD161 (NKR-P1A) = biological target: T2, human CD161 (NKR-P1A) (human, UniProt Q12918 1-225); assay: flow cytometry, LLT1-Fc multimer on CD161-transfected HEK293T cells
T2 construct: Native on polyclonal human NK and T cells in the staining and functional assays; The background calls CD161 a disulfide-bond homodimer; also called CD161 receptor; CD161-pIRES2-EGFP transfected HEK293T cells
T2 sequence: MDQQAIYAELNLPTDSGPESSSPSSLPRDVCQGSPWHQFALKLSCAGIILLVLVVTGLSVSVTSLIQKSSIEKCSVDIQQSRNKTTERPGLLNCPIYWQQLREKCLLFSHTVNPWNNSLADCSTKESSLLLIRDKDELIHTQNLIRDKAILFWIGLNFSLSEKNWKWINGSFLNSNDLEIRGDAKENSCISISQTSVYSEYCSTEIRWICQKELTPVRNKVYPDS
Protocol: as §1

- binding result [1]: no binding
- binding result (human CD161 (NKR-P1A)): binds
B1: LLT1-Fc-ProteinA-biotin-Streptavidin-APC multimer (Fc fusion)
chain: RANCHQEPSVCLQAACPESWIGFQRKCFYFSDDTKNWTSSQRFCDSQDADLAQVESFQELNFLLRYKGPSDHWIGLSREQGQPWKWINGTEWTRQFPILGAGECAYLNDKGASSARHYTERKWICSKSDIHV
notes: also called LLT1-multimer; LLT1 multimer; not shown: Fc portion of human IgG1
